Here are results for 94 variants from the supplement of paper PMC10567573.

B1: ADAMTS4 (parent)
chain: HVDPEEPWSPCSARFITDFLDNGY
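Also: lentivirally expressed fusions sorted by FACS into six bins by GFP to DsRed ratio, PSI derived from sequencing read proportions per bin multiplied by bin number.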

The variants in this series derive from B1. The experiment in a line: protein stability index of a GFP-peptide fusion (GPS, HEK-293T) (PSI 1-6); higher = more stable. The note with it: c terminus: a fixed tail appended.
As for HVDPEEPWSMCSARFITDFLDNGY [P10M], the protein stability index was 2.14.
As for HVDPEEPWSNCSARFITDFLDNGY [P10N], the protein stability index was 1.99.
In the case of HVDPEEPWSTCSARFITDFLDNGY [P10T] it was 1.92; in that of HVDPEEPWSACSARFITDFLDNGY [P10A], 1.75; in that of HVDPEEPWSECSARFITDFLDNGY [P10E], 2.48.
With HVDPEEPWSDCSARFITDFLDNGY [P10D], the protein stability index was found to be 2.22.
In the case of HVDPEEPWSSCSARFITDFLDNGY [P10S] it was 2.49.
In the case of HVDPEEPWSYCSARFITDFLDNGY [P10Y] it was 1.79; in that of HVDPEEPWSHCSARFITDFLDNGY [P10H], 1.81.
For HVTPEEPWSPCSARFITDFLDNGY [D3T], the protein stability index came to 2.04.
Take HVSPEEPWSPCSARFITDFLDNGY [D3S]: the protein stability index is 2.48.
Turning to HVWPEEPWSPCSARFITDFLDNGY [D3W], the protein stability index was 1.34.
In the case of HVQPEEPWSPCSARFITDFLDNGY [D3Q] it was 2.49; in that of HVRPEEPWSPCSARFITDFLDNGY [D3R], 1.8.
On to HVNPEEPWSPCSARFITDFLDNGY [D3N], for which the protein stability index amounted to 2.21.
Turning to HVVPEEPWSPCSARFITDFLDNGY [D3V], the protein stability index was found to be 1.77.
In the case of HVYPEEPWSPCSARFITDFLDNGY [D3Y] it was 1.11.
As to HVPPEEPWSPCSARFITDFLDNGY [D3P], the protein stability index amounted to 1.85.
With HVDPEEPWSPCKARFITDFLDNGY [S12K] the figure was 1.55; with HVDPEEPWSPCWARFITDFLDNGY [S12W], 1.67; with HVDPEEPWSPCFARFITDFLDNGY [S12F], 1.86.
For the variant HVDPEEPWSPCDARFITDFLDNGY [S12D], the protein stability index was determined as 2.39.
On to HVDPEEPWSPCLARFITDFLDNGY [S12L], for which the protein stability index stood at 2.12.
With HVDPEEPWSPCTARFITDFLDNGY [S12T] the figure was 1.47.
With HVDPEEPWSPCAARFITDFLDNGY [S12A] the figure was 1.68; with HVDPEEPWSPCQARFITDFLDNGY [S12Q], 2.1.
In the case of HVDPEEPWSPCYARFITDFLDNGY [S12Y] it was 1.83; in that of HVDPEEPWSPCVARFITDFLDNGY [S12V], 2.01; in that of HVDPEEPWSPCMARFITDFLDNGY [S12M], 1.57.
As to HVDPEEPWSPCEARFITDFLDNGY [S12E], the protein stability index worked out at 1.88.
With HVDPEEPWSPCIARFITDFLDNGY [S12I] the figure was 2.16; with HVDPEEPWSPCHARFITDFLDNGY [S12H], 2.31.
With HVDPEEPWSPCNARFITDFLDNGY [S12N] the figure was 2.05; with HVDPEEPWSPCCARFITDFLDNGY [S12C], 1.8; with HVDPEEPWSPCRARFITDFLDNGY [S12R], 1.97.
In the case of HVDPEEPWSPCGARFITDFLDNGY [S12G] it was 1.61; in that of HVDPEEPWSPCPARFITDFLDNGY [S12P], 1.4.
Turning to HVDPEEQWSPCSARFITDFLDNGY [P7Q], the protein stability index was found to be 1.72.
On to HVDPEERWSPCSARFITDFLDNGY [P7R], for which the protein stability index was 2.14.
For the variant HVDPEESWSPCSARFITDFLDNGY [P7S], the protein stability index was 2.35.
With HVDPEEEWSPCSARFITDFLDNGY [P7E] the figure was 2.67.
With HVDPEEYWSPCSARFITDFLDNGY [P7Y] the figure was 2.79.
As to HVDPEEDWSPCSARFITDFLDNGY [P7D], the protein stability index was 2.7.
In the case of HVDPEEVWSPCSARFITDFLDNGY [P7V] it was 2.56.
Consider HVDPEEGWSPCSARFITDFLDNGY [P7G], for which the protein stability index came out at 1.92.
With HVDPEEHWSPCSARFITDFLDNGY [P7H] the figure was 1.57; with HVDPEEFWSPCSARFITDFLDNGY [P7F], 2.85.
In the case of HVDPEENWSPCSARFITDFLDNGY [P7N] it was 1.74; in that of HVDPEEMWSPCSARFITDFLDNGY [P7M], 2.23.
For HVDPEEIWSPCSARFITDFLDNGY [P7I], the protein stability index was determined as 1.61.
In the case of HVDPEEWWSPCSARFITDFLDNGY [P7W] it was 2.54; in that of HVDPEELWSPCSARFITDFLDNGY [P7L], 3.65; in that of HVDPEETWSPCSARFITDFLDNGY [P7T], 1.9.
With HVDPEECWSPCSARFITDFLDNGY [P7C] the figure was 2.11; with HVDPEEAWSPCSARFITDFLDNGY [P7A], 1.48; with HVDPEEKWSPCSARFITDFLDNGY [P7K], 1.89.
In the case of HVDPEFPWSPCSARFITDFLDNGY [E6F] it was 2.19; in that of HVDPEHPWSPCSARFITDFLDNGY [E6H], 1.74.
Consider HVDPEIPWSPCSARFITDFLDNGY [E6I], for which the protein stability index stood at 1.56.
In the case of HVDPESPWSPCSARFITDFLDNGY [E6S] it was 2.43; in that of HVDPEAPWSPCSARFITDFLDNGY [E6A], 1.85.
In the case of HVDPEKPWSPCSARFITDFLDNGY [E6K] it was 1.64.
With HVDPEGPWSPCSARFITDFLDNGY [E6G] the figure was 1.92.
As for HVDPEPPWSPCSARFITDFLDNGY [E6P], the protein stability index was 2.72.
In the case of HVDPETPWSPCSARFITDFLDNGY [E6T] it was 1.77.
With HVDPEVPWSPCSARFITDFLDNGY [E6V], the protein stability index came to 1.79.
In the case of HVDPEWPWSPCSARFITDFLDNGY [E6W] it was 2.57; in that of HVDPELPWSPCSARFITDFLDNGY [E6L], 2.05.
In the case of HVDPEMPWSPCSARFITDFLDNGY [E6M] it was 2.59; in that of HVDPERPWSPCSARFITDFLDNGY [E6R], 2.44; in that of HVDPECPWSPCSARFITDFLDNGY [E6C], 2.21.
For the variant HVDPENPWSPCSARFITDFLDNGY [E6N], the protein stability index is 1.94.
With HVDPEYPWSPCSARFITDFLDNGY [E6Y] the figure was 2.07; with HVDPEQPWSPCSARFITDFLDNGY [E6Q], 2.24; with HVDPEDPWSPCSARFITDFLDNGY [E6D], 1.76.
Take HVDPVEPWSPCSARFITDFLDNGY [E5V]: the protein stability index was determined as 1.92.
For the variant HVDPMEPWSPCSARFITDFLDNGY [E5M], the protein stability index came to 2.17.
With HVDPTEPWSPCSARFITDFLDNGY [E5T] the figure was 2.96; with HVDPYEPWSPCSARFITDFLDNGY [E5Y], 3.13; with HVDPKEPWSPCSARFITDFLDNGY [E5K], 2.58.
With HVDPGEPWSPCSARFITDFLDNGY [E5G] the figure was 2.13; with HVDPIEPWSPCSARFITDFLDNGY [E5I], 2.32.
In the case of HVDPSEPWSPCSARFITDFLDNGY [E5S] it was 2.35.
Consider HVDPLEPWSPCSARFITDFLDNGY [E5L], for which the protein stability index stood at 2.31.
Regarding HVDPPEPWSPCSARFITDFLDNGY [E5P], the protein stability index turned out to be 2.29.
Consider HVDPNEPWSPCSARFITDFLDNGY [E5N], for which the protein stability index was determined as 1.96.
With HVDPFEPWSPCSARFITDFLDNGY [E5F] the figure was 2.72; with HVDPWEPWSPCSARFITDFLDNGY [E5W], 2.79.
In the case of HVDPQEPWSPCSARFITDFLDNGY [E5Q] it was 2.43; in that of HVDPREPWSPCSARFITDFLDNGY [E5R], 2.77.
In the case of HVDPCEPWSPCSARFITDFLDNGY [E5C] it was 2.19; in that of HVDPHEPWSPCSARFITDFLDNGY [E5H], 1.66.
For the variant HVDPAEPWSPCSARFITDFLDNGY [E5A], the protein stability index was 2.37.
With HVDPDEPWSPCSARFITDFLDNGY [E5D] the figure was 1.9.
